In one assay the target is AP2μ-eCFP fusion (UniProt Q96CW1). Put plainly: FACS-based FRET assay. Conditions: 293T cells cotransfected with Nef-YFP and AP2µ-CFP, measured 24 hours later.
Assay [1] has as its target AP2μ-eCFP fusion (human (HeLa cDNA library)) (UniProt Q96CW1). Put plainly: FRET or BRET; FACS-based FRET; 293 T cells cotransfected with Nef-YFP fusion vectors and AP2μ-CFP; 24 hours later the amount of cells scoring FRET+ measured by flow cytometry. On the technique in general: BRET reads energy transfer from a luciferase to a nearby fluorophore.
[2] abbreviates: mean and SD of four to nine independent transfections, parent: est. 62, read off a plot.

On to SIVmac 239 Nef-YFP G2A, for which the response (% FRET+ cells) in the assay with AP2μ-eCFP fusion (setting [2]) worked out at 3.
Consider HIV-2 Ben Nef-YFP (natural protein), for which the percent of FRET+ cells (mean) in assay [1] is below 35%.
The same measure, in the same setting: with SIVsm FFm1 Nef-YFP (natural protein) the figure was below 35%.
As to SIVmac 239 Nef-YFP Y28A, the response (% FRET+ cells) in the assay with AP2μ-eCFP fusion (setting [2]) turned out to be 26.
As for SIVmac 239 Nef-YFP Y28F, the response (% FRET+ cells) turned out to be 32 with AP2μ-eCFP fusion (setting [2]) and 38.1 in the assay with AP2μ-eCFP fusion (representative single FACS plot (upper row of panel A), parent: 69.8).
